Measurements taken from article PMC4775402 (Pharmacological research, 2016).

Columns and labels:
Format in all cases: cell-based
[1] = molecular target: WT P2RY12 (Homo sapiens, UniProt Q9H244); assay: Label-free DMR agonist response, HEK293T expressing WT P2RY12
[2] = molecular target: WT P2RY1 (Homo sapiens, UniProt P47900); assay: Label-free DMR agonist response, HEK293T expressing WT P2RY1
[3] = molecular target: ΔPDZ P2RY12 (Homo sapiens, UniProt Q9H244); assay: Label-free DMR agonist response, HEK293T expressing ΔPDZ P2RY12
[4] = molecular target: ΔPDZ P2RY1 (Homo sapiens, UniProt P47900); assay: Label-free DMR agonist response, HEK293T expressing ΔPDZ P2RY1
[5] = molecular target: T1, WT CXCR2 (Homo sapiens, UniProt P25025); assay: Label-free DMR agonist response, HEK293T expressing WT CXCR2
T1 sequence (P25025 1-360): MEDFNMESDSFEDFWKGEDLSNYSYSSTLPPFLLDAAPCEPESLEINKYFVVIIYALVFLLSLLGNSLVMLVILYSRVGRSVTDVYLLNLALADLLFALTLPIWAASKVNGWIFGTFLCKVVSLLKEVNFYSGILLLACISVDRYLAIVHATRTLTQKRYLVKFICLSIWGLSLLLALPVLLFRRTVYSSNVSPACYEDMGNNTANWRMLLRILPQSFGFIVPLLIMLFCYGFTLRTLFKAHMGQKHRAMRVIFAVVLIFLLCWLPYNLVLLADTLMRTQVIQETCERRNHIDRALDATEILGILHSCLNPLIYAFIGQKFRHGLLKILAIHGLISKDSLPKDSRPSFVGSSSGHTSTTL

[6] = molecular target: T2, WT CXCR5 (Homo sapiens, UniProt P32302); assay: Label-free DMR agonist response, HEK293T expressing WT CXCR5
T2 sequence (P32302 1-372): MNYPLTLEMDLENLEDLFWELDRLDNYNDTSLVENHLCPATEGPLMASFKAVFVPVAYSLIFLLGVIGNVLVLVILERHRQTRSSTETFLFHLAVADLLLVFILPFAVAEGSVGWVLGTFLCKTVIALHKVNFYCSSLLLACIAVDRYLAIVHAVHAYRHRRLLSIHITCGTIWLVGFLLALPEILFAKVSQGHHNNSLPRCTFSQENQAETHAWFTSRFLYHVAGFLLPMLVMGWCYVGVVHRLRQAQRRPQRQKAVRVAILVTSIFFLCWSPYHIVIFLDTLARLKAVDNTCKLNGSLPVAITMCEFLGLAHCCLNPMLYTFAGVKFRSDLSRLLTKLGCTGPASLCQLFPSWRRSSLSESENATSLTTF

[7] = molecular target: T3, WT CXCR3 (Homo sapiens, UniProt P49682); assay: Label-free DMR agonist response, HEK293T expressing WT CXCR3
T3 sequence (P49682 1-368): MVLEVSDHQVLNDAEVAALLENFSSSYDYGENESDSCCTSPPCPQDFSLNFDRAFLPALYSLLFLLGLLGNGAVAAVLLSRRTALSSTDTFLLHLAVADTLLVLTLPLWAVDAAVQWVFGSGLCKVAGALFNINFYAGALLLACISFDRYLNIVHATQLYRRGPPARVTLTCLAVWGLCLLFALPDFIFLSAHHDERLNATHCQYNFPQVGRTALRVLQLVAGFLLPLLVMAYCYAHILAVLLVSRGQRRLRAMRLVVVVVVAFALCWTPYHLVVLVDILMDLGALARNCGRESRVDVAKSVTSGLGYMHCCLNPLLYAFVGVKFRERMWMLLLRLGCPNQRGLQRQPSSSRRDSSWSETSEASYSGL

[8] = molecular target: T4, ΔPDZ CXCR5 (Homo sapiens, UniProt P32302); assay: Label-free DMR agonist response, HEK293T expressing ΔPDZ CXCR5
T4 sequence (P32302 1-368 limits assumed): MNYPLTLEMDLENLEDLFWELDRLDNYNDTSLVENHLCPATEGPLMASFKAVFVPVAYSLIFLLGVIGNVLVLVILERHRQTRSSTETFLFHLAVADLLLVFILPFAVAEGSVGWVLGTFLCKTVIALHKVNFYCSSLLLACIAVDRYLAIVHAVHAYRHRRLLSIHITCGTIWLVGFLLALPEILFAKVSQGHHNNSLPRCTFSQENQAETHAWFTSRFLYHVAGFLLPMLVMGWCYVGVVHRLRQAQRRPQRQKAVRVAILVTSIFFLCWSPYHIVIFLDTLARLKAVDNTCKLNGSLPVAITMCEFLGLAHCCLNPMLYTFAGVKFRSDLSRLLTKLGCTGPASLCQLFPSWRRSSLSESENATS

[9] = molecular target: T5, WT CXCR1 (Homo sapiens, UniProt P25024); assay: Label-free DMR agonist response, HEK293T expressing WT CXCR1
T5 sequence (P25024 1-350): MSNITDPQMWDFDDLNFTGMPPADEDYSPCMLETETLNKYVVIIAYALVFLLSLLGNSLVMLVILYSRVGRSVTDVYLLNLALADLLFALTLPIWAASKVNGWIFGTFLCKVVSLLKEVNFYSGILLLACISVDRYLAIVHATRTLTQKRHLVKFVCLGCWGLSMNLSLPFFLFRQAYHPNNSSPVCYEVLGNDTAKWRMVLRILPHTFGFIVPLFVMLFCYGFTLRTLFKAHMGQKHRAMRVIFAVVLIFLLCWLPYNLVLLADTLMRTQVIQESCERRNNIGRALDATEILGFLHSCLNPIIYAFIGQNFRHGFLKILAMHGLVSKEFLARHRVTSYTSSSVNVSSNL

[10] = molecular target: T6, ΔPDZ CXCR2 (Homo sapiens, UniProt P25025); assay: Label-free DMR agonist response, HEK293T expressing ΔPDZ CXCR2
T6 sequence (P25025 1-356 limits assumed): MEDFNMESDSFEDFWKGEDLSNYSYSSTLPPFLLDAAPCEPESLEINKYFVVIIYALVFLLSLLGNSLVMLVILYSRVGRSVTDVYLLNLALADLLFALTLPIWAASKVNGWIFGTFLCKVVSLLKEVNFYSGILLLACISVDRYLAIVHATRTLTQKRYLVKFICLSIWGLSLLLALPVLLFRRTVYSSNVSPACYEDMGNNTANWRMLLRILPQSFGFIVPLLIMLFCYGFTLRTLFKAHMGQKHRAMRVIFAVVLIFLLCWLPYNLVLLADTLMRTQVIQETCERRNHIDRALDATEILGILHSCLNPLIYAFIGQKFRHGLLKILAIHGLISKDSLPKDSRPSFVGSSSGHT

[11] = molecular target: T7, ΔPDZ CXCR1 (Homo sapiens, UniProt P25024); assay: Label-free DMR agonist response, HEK293T expressing ΔPDZ CXCR1
T7 sequence (P25024 1-346 limits assumed): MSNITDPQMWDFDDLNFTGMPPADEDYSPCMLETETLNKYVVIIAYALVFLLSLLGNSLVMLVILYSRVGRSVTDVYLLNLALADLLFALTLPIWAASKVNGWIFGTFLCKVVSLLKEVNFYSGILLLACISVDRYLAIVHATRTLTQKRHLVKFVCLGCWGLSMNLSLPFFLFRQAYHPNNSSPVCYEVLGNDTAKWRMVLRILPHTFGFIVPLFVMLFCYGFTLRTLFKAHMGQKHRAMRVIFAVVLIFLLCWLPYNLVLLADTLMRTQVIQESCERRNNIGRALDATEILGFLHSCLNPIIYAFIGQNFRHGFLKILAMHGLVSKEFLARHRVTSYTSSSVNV

[12] = molecular target: T8, ΔPDZ CXCR3 (Homo sapiens, UniProt P49682); assay: Label-free DMR agonist response, HEK293T expressing ΔPDZ CXCR3
T8 sequence (P49682 1-364 limits assumed): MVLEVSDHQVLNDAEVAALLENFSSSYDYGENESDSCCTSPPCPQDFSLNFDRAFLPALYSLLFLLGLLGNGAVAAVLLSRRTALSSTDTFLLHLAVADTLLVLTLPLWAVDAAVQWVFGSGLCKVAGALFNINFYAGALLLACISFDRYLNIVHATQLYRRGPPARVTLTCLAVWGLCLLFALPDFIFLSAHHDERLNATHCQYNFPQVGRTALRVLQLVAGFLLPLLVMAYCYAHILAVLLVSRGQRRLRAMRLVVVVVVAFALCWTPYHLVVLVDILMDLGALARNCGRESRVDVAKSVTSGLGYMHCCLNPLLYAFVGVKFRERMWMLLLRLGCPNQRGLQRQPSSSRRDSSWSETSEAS

ΔPDZ P2RY12, sequence (Q9H244 1-338 limits assumed, stated change not applied, one chain of several): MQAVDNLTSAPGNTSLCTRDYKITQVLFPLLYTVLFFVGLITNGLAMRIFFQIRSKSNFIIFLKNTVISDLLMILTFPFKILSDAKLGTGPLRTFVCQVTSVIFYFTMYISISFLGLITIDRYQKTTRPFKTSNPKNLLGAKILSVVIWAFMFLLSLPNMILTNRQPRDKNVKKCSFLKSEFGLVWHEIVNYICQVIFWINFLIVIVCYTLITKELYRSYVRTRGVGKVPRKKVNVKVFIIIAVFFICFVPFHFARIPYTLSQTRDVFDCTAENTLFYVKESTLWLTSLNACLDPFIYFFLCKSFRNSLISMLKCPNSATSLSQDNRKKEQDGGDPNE
WT P2RY1, sequence (P47900 whole entry): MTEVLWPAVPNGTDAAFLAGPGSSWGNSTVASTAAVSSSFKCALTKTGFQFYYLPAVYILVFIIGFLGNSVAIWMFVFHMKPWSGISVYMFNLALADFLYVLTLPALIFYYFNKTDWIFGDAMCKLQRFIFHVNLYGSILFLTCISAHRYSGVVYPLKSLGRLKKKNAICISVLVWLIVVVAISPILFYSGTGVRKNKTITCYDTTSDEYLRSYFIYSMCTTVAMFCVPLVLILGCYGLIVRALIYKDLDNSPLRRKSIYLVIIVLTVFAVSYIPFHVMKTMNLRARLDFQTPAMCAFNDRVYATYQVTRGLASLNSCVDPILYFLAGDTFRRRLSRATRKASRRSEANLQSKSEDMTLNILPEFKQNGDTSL
WT P2RY12, sequence (Q9H244 whole entry, one chain of several): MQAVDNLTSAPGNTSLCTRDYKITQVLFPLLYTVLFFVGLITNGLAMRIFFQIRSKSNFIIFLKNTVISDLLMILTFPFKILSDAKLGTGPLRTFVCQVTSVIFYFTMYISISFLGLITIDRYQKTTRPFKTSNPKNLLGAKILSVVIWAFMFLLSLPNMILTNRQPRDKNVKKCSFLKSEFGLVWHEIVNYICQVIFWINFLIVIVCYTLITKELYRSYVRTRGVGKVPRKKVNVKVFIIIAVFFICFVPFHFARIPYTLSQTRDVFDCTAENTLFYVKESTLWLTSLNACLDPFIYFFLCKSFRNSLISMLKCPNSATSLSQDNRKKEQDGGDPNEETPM
ΔPDZ P2RY1, sequence (P47900 1-369 limits assumed, stated change not applied): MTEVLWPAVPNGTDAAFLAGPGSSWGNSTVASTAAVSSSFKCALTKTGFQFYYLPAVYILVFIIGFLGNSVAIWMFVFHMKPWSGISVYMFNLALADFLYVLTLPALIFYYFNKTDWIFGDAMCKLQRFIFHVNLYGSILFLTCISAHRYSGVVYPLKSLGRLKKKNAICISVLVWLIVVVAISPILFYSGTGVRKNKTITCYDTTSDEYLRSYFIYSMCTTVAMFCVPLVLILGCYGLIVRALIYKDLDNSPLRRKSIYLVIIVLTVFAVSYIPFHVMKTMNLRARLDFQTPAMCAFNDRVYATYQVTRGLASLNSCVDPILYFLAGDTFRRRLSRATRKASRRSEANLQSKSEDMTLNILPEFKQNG

O=c1ccn([C@@H]2O[C@H](COP(=O)(O)OP(=O)(O)OP(=O)(O)O)[C@@H](O)[C@H]2O)c(=O)[nH]1 [UTP]
WT pEC50 ([1]; HEK293T, WT P2RY12, DMR CRC): −5.47 ± 0.07
WT Max (DMR) ([1]; HEK293T, WT P2RY12, maximal agonist DMR response): 170.04 ± 2.93
WT TTP ([1]; HEK293T, WT P2RY12, time to peak DMR): 5.40 s
Agonist potency (in words) ([1]; P2Y receptors (P2RY12), DMR): micromolar
WT pEC50 ([2]; HEK293T, WT P2RY1, DMR CRC): −5.39 ± 0.15
WT Max (DMR) ([2]; HEK293T, WT P2RY1, maximal agonist DMR response): 116.19 ± 2.22
WT TTP ([2]; HEK293T, WT P2RY1, time to peak DMR): 4.87 s
Agonist potency (in words) ([2]; P2Y receptors (P2RY1), DMR): micromolar
ΔPDZ pEC50 ([3]; ΔPDZ P2RY12, DMR CRC): −5.70 ± 0.08
ΔPDZ Max (DMR) ([3]; ΔPDZ P2RY12, maximal agonist DMR response): 192.60 ± 6.35
ΔPDZ TTP ([3]; ΔPDZ P2RY12, time to peak DMR): 5.20 s
ΔPDZ pEC50 ([4]; ΔPDZ P2RY1, DMR CRC): −5.69 ± 0.19
ΔPDZ Max (DMR) ([4]; ΔPDZ P2RY1, maximal agonist DMR response): 118.68 ± 10.27
ΔPDZ TTP ([4]; ΔPDZ P2RY1, time to peak DMR): 5.27 s

interleukin-8
WT pEC50 ([5]; WT CXCR2, DMR CRC): −8.53 ± 0.11
WT Max (DMR) ([5]; WT CXCR2, maximal agonist DMR response): 34.89 ± 2.08
WT TTP ([5]; WT CXCR2, time to peak DMR): 3.20 s
WT pEC50 ([6]; WT CXCR5, DMR CRC): −10.34 ± 0.16
WT Max (DMR) ([6]; WT CXCR5, maximal agonist DMR response): 23.22 ± 1.80
WT TTP ([6]; WT CXCR5, time to peak DMR): 2.50 s
WT Max (DMR) ([7]; WT CXCR3, maximal agonist DMR response): 10.17 ± 2.00
WT TTP ([7]; WT CXCR3, time to peak DMR): 11.70 s
ΔPDZ pEC50 ([8]; ΔPDZ CXCR5, DMR CRC): −9.97 ± 0.12
ΔPDZ Max (DMR) ([8]; ΔPDZ CXCR5, maximal agonist DMR response): 40.70 ± 2.54
ΔPDZ TTP ([8]; ΔPDZ CXCR5, time to peak DMR): 2.30 s
WT pEC50 ([9]; WT CXCR1, DMR CRC): −8.29 ± 0.07
WT Max (DMR) ([9]; WT CXCR1, maximal agonist DMR response): 69.69 ± 1.88
WT TTP ([9]; WT CXCR1, time to peak DMR): 3.60 s
ΔPDZ pEC50 ([10]; ΔPDZ CXCR2, DMR CRC): −8.45 ± 0.13
ΔPDZ Max (DMR) ([10]; ΔPDZ CXCR2, maximal agonist DMR response): 37.50 ± 2.20
ΔPDZ TTP ([10]; ΔPDZ CXCR2, time to peak DMR): 3.50 s
ΔPDZ pEC50 ([11]; ΔPDZ CXCR1, DMR CRC): −7.08 ± 0.45
ΔPDZ Max (DMR) ([11]; ΔPDZ CXCR1, maximal agonist DMR response): 9.48 ± 1.53
ΔPDZ TTP ([11]; ΔPDZ CXCR1, time to peak DMR): 3.80 s
ΔPDZ Max (DMR) ([12]; ΔPDZ CXCR3, maximal agonist DMR response): 18.3 ± 3.16
ΔPDZ TTP ([12]; ΔPDZ CXCR3, time to peak DMR): 15.60 s
